In this experiment the test system is DU145 cells. The experiment in a line: Cell proliferation assay (WST-1). Type of experiment: cell-based, human. The conditions noted are these: protein added exogenously 48 hours after siRNA transfection. The source says:
In contrast, CRKL was not detected in control cell media as shown by immunoprecipitation either with anti-CRKL or with several control antibodies. […] Next, studies were undertaken to determine whether the CRKL secretion had any detectable effect(s) on cell proliferation and migration. […] As an additional control, it was shown that the decrease in cell proliferation could be rescued by exogenous CRKL (FIG. 8D) and only background levels of apoptosis (less than 1%) were detected in the CRKL siRNA knockdown cells or in serum-free medium cultured cells.
CRKL (mRNA accession # NM_005207), β1 integrin (mRNA accession # NM_002211), and control siRNAs were purchased (Santa Cruz, Ambion and Dharmacon). siRNA oligonucleotides sequences and corresponding manufacturers are summarized in (Table 3). Oligofectamine (Invitrogen) or DharmaFect (Dharmacon) were used to transfect siRNAs into DU145 cells (1-2×10^5 cells per well). The transfected cells were incubated for 48-72 hours prior to processing. […] Transfected cells were harvested and lysed in the presence of protease inhibitors. The tumor-homing phage binding activity was also examined in the CRKL knockdown cells. For rescue experiments, up to 1.5 μg of recombinant CRKL was exogenously added to CRKL siRNA transfected cells. […]

B1: exogenous CRKL: recombinant His-tag CRKL protein added exogenously (protein)
chain: MSSARFDSSDRSAWYMGPVSRQEAQTRLQGQRHGMFLVRDSSTCPGDYVLSVSENSRVSHYIINSLPNRRFKIGDQEFDHLPALLEFYKIHYLDTTTLIEPAPRYPSPPMGSVSAPNLPTAEDNLEYVRTLYDFPGNDAEDLPFKKGEILVIIEKPEEQWWSARNKDGRVGMIPVPYVEKLVRSSPHGKHGNRNSNSYGIPEPAHAYAQPQTTTPLPAVSGSPGAAITPLPSTQNGPVFAKAIQKRVPCAYDKTALALEVGDIVKVTRMNINGQWEGEVNGRKGLFPFTHVKIFDPQNPDENE
With B1, the “rescue of decrease in cell proliferation in CRKL siRNA knockdown cells” value is “rescued”.

Source of the values: patent publication US20110189095A1, “CRKL TARGETING PEPTIDES” (The Board of Regents, of the University of Texas System, priority 2008, published 2011).
